According to doi:10.1101/2025.02.14.637896 (bioRxiv, 2025):

Molecular target: the molecule itself
Experiment: SEC

B1: GIRK2 R92F channel (G protein-gated inwardly rectifying potassium channel 2, R92F substitution) (natural protein, mouse, UniProt P48542 1-425, looked up)
chain: MTMAKLTESMTNVLEGDSMDQDVESPVAIHQPKLPKQARDDLPRHISRDRTKRKIQRYVRKDGKCNVHHGNVRETYRYLTDIFTTLVDLKWFFNLLIFVMVYTVTWLFFGMIWWLIAYIRGDMDHIEDPSWTPCVTNLNGFVSAFLFSIETETTIGYGYRVITDKCPEGIILLLIQSVLGSIVNAFMVGCMFVKISQPKKRAETLVFSTHAVISMRDGKLCLMFRVGDLRNSHIVEASIRAKLIKSKQTSEGEFIPLNQSDINVGYYTGDDRLFLVSPLIISHEINQQSPFWEISKAQLPKEELEIVVILEGIVEATGMTCQARSSYITSEILWGYRFTPVLTMEDGFYEVDYNSFHETYETSTPSLSAKELAELANRAEVPLSWSVSSKLNQHAELETEEEEKNPEELTERNGDVANLENESKV
stoichiometry N: 4
